According to doi:10.1101/2023.01.30.526200, “The virus-encoded ion channel “viroporin” activity of the agnoprotein is required for BK Polyomavirus release from infected kidney cells” (bioRxiv, 2023):
“And” between values parts separate entries of the source, which are not always exact repeats. Equal values may be shown once.

Biological target: the molecule itself
Assay: SDS-PAGE (SDS-resistant oligomers); increasing concentrations of purified His-BKPyV agnoprotein on SDS PAGE, probed with anti-agnoprotein or anti-His antibody; oligomerisation concentration dependent

B1: recombinant 10xHis BKPyV agnoprotein (natural protein)
chain: MVLRQLSRQASVKVGKTWTGTKKRAQRIFIFILELLLEFCRGEDSVDGKNKSTTALPAVKDSVKDS
notes: agnoprotein of BK polyomavirus, DNA codon optimised for E. coli, amplified with primers from the ATG to the stop codon and cloned into pET19b (KpnI/BamHI); also called 10xHis BK agnoprotein; recombinant agnoprotein; source: E. coli DE3 gold, purified (NiNTA, HiTrap SP ion exchange, C4 solid phase extraction; dissolved in DMSO); not shown: His10, N-terminal, kept
stoichiometry N: 2 and 4 and 5
